For orientation: Kd means a measure of binding affinity in units of concentration. A high value points to lower affinity.

In this assay the target is T1, human Rab7 Q67L (residues 2–195), GTP-loaded (human, UniProt P51149 2-195, Q67L).
T1 construct: Supplemented with 1 mM GTP; Mg2+ and GTP are seen in the structure; also called Rab7A; Rab7-GTP; source: E. coli BL21(DE3), purified (Ni-NTA, thrombin cleavage, SEC; same procedure as the PDZD8 CC)
The experiment in a line: ITC; 1 mM MBP-PDZD8 CC in the syringe injected (2 μl × 25) into 0.1 mM Rab7 in the cell; 20 °C; 20 mM Tris-HCl pH 7.5, 150 mM NaCl; Rab7 Q67L loaded with 1 mM GTP, Rab7 T22N with 1 mM GDP; two-site model for wild type, independent (single-site) model for mutants. Particulars: both partners purified. A general note: ITC needs no label: the signal is the heat of the interaction.

T1 sequence (P51149 2-195 Q67L): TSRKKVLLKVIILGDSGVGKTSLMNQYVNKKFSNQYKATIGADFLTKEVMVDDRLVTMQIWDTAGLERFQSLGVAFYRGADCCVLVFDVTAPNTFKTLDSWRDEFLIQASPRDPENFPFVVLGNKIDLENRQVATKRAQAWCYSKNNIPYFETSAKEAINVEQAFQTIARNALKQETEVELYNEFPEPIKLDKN

B1: MBP-PDZD8 CC A1086R (domain or fragment, human, UniProt Q8NEN9 994-1123, looked up)
chain: GNSTGIKLVRKEGGLDDSVFIAVKEIGRDLYRGLPTEERIQKLEFMLDKLQNEIDQELEHNNSLVREEKETTDTRKKSLLSAALAKSGERLQRLTLLMIHYRAGIEDIETLESLSLDQHSKKISKYTDDT
notes: also called PDZD8 A1086R; source: purified recombinant protein; not shown: His tag, N-terminal, kept; MBP, N-terminal, kept
As for B1, binding was characterised by a dissociation constant (Kd) of 0.66 µM.

B2: MBP-PDZD8 CC I1092E (domain or fragment, human, UniProt Q8NEN9 994-1123, looked up)
chain: GNSTGIKLVRKEGGLDDSVFIAVKEIGRDLYRGLPTEERIQKLEFMLDKLQNEIDQELEHNNSLVREEKETTDTRKKSLLSAALAKSGERLQALTLLMEHYRAGIEDIETLESLSLDQHSKKISKYTDDT
notes: also called PDZD8 I1092E; source: purified recombinant protein; not shown: His tag, N-terminal, kept; MBP, N-terminal, kept
For the molecule B2, the affinity, expressed as Kd, was 9.2 µM.

B3: MBP-PDZD8 CC, residues 980–1123 (domain or fragment, human, UniProt Q8NEN9 980-1123, looked up)
chain: SDTEVCGPNSPSKRGNSTGIKLVRKEGGLDDSVFIAVKEIGRDLYRGLPTEERIQKLEFMLDKLQNEIDQELEHNNSLVREEKETTDTRKKSLLSAALAKSGERLQALTLLMIHYRAGIEDIETLESLSLDQHSKKISKYTDDT
notes: source: purified recombinant protein; not shown: His tag, N-terminal, kept; MBP, N-terminal, kept
As to B3, the binding result is “binds”.

Source of the values: paper PMC8458453, “Structural basis of human PDZD8–Rab7 interaction for the ER-late endosome tethering” (Scientific Reports, 2021).
